Test results from patent publication CN111690059A (WUHAN INST OF BIOLOGICAL PRODUCTS CO LTD, dated 2020).

What was measured:
[1] = target: T1, SARS-CoV-2刺突S1-His重组蛋白(Sino公司，货号:40591-V08H) (SARS-CoV-2, UniProt P0DTC2 16-685); experiment: ELISA, coated S1-His 1.0 μg/mL, goat anti-human IgG-HRP detection
T1 construct: domain: S1; also called S1蛋白; SARS-CoV-2刺突蛋白S1

[2] = target: T2, SARS-CoV-2刺突S1亚基蛋白(Sino公司，货号:40591-V02H) (SARS-CoV-2, UniProt P0DTC2 16-685); experiment: blocking ELISA, coated S1 subunit protein, competitor His-tagged ACE2
T2 construct: domain: S1; also called SARS-CoV-2(2019-nCoV)病毒的刺突蛋白S1

[3] = target: T3, SARS-CoV-2刺突蛋白S1的RBD结构域重组蛋白(Sino公司，货号40592-V05H) (SARS-CoV-2, UniProt P0DTC2 319-541); experiment: ELISA, coated RBD 1.0 μg/mL, goat anti-human IgG-HRP detection
T3 construct: domain: RBD结构域; also called RBD结构域的重组蛋白

[4] = target: T3, SARS-CoV-2刺突蛋白S1的RBD结构域重组蛋白(Sino公司，货号405 …); experiment: blocking ELISA, coated RBD, competitor His-tagged ACE2

B1: 抗SARS-CoV-2的单克隆抗体1D7 (antibody, V domains shown)
VH: EVQLVESGGGWIQPGGSLRLSCAASGLTVSSNYMSWVRQAPGKGLEWVSVIYSGGSTYYADSVKGRFTISRDNSKNTLYLQMNSLRAEDTAVYYCARDLVVYGMDVWGQGTTVTVSS
VL: AIRMTQSPSSLSASVGDRVTITCRASQSISSYLNWYQQKPGKAPKLLIYAASSLQSGVPSRFSGSGSGTDFTLTISSLQPEDFATYYCQQSYSTLGMYTFGQGTKLEIK
notes: also called 1D7抗体; 人源抗SARS-CoV-2抗体1D7
Question: With B1 as the binder, how does the EC50 [1] read?
Answer: 0.092 nM

Question: What about the IC50 [2] of the same binder?
Answer: 7.8 nM

Question: And the EC50 [3]?
Answer: 0.055 nM

Question: And the IC50 [4]?
Answer: 4.1 nM
